Measured values reported in patent US7288523B2, “Peptide binding the KLVFF-sequence of amyloid-β” (Neurochem (International) Limited, priority 1995, dated 2007).

Key:
[1] = literature; cited from earlier work
[2] = Aggregation and fibril formation of Aβ-1-28 peptides (RPLC of supernatant, electron microscopy of pellet); assay type: physicochemical; conditions: 200 μM, 24 h, 37° C., TBS
Description: Aβ-1-28 (FIG. 3A) and AP-1-28^AAVFA (FIG. 3B) were incubated at 200 μM in TBS for 24 h at 37° C. in a shaking water bath. After incubation, the tubes were centrifuged at 20,000 g for 20 min and the content of non-aggregated peptide in the supernatants (FIG. 3A, B) was analyzed using an established C4 RPLC system (12) whereas the aggregated peptides in the pellets were analyzed by electron microscopy after adsorption to formvar-coated grids and negative staining with 2% uranyl acetate in water.

[3] = molecular target: amyloid fibril formation (Homo sapiens, UniProt P05067); conditions: literature; cited from earlier work
[4] = molecular target: T1, labelled KLVFF (Homo sapiens, UniProt P05067); test: Screening of combinatorial D-amino acid pentapeptide libraries with labelled KLVFF; assay type: binding
T1 construct: with labelled KLVFF
Source text: (§1) By screening combinatorial pentapeptide libraries exclusively composed of D-amino acids (lowercase) with labelled KLVFF, several ligands with a motif containing phenylalanine (f) in the second and leucine (l) in the third position were identified (e.g. lflrr). By using a short peptide in the screening, known to bind to a region in Aβ critical for its polymerization (i.e. KLVFF), the risk of identifying D-pentapeptides that interact with nonrelevant regions in Aβ (N- or C-terminal to Aβ-16-20) was eliminated. […] Since peptides built up of D-amino acids are resistant to proteolytic degradation, these ligands may be beneficial for inhibition of amyloidogenesis in vivo.

[5] = molecular target: T2, Aβ-1-40 (Homo sapiens, UniProt P05067); test: Surface plasmon resonance spectroscopy (BIAcore 2000), Aβ-1-40 over immobilized peptide; assay type: binding; conditions: chip derivatized with KLVFF-βA-βA-C; three Aβ-1-40 concentrations, pH 7.4
T2 construct: Incubation of synthetic Aβ-1-40 at 100 μM for 48 h; host or cells: synthetic peptide (chemical synthesis)
Description: c) Sensorgram from BIAcore 2000. Aβ-1-40, at three different concentrations in running buffer, pH 7.4. Aβ-1-40 was injected during 10 minutes over a sensor-chip derivatized with the peptide KLVFF-βA-βA-C.
c) The interaction between soluble Aβ-1-40 and immobilized KLVFF was monitored in real-time (FIG. 2D) using surface plasmon resonance spectroscopy (BIAcore, Pharmacia) (BIAcore 2000 (Pharmacia Biosensor AB, Sweden) was used for real-time studies based on surface plasmon resonance spectroscopy. The peptide was immobilized using thiol coupling. The running buffer consisted of 10 mM HEPES, 0.15 M NaCl, 3.4 mM EDTA and 0.05% surfactant P20 as described. [U. Jansson, M. Malmqvist, Adv. Biosens. 2, 291-336 (1992)]).
d) AA served as linker between the active peptide and the chip (upper trace) and cysteine alone, indicating non-specific binding, (C) as control (lower trace). Arrows indicate start and stop of injection (FIG. 2D).

[6] = molecular target: T3, ^125I-labelled Aβ-1-40 (Homo sapiens, UniProt P05067); test: SPOT filter-bound peptides incubated with radioactive Aβ-1-40, autoradiography and densitometry; assay type: binding; conditions: 20 μM ^125I-labelled Aβ-1-40, 20° C., 12 h, TBS pH 7.3; semiquantitative
T3 construct: incubated in the presence of 20 μM ^125I-labelled Aβ-1-40; host or cells: synthetic peptide (chemical synthesis)
Source text: a) Ten-mers corresponding to consecutive sequences of Aβ-1-40 were synthesized on a filter matrix using the SPOT-technique (the peptides were synthesized essentially as described by Frank [R. Frank, Tetrahedron 42, 9217-9232 (1992)]. Briefly, a spacer corresponding to 2 molecules of β-alanine was coupled to cellulose membranes (Whatman lChr). The peptides were synthesized on these derivatized membranes using Fmoc protected and pentafluorophenyl-activated amino acids (AMS Biotechnology) dissolved in N-methylpyrrolidone. Coupling efficiency was monitored using bromphenol blue.). We synthesized the thirty-one possible 10-mers of the Aβ-1-40. Peptide no. 1 corresponds to amino acids 1-10, peptide no. 2 to amino acids 2-11 etc. The filter-bound peptides were incubated with radioactive Aβ-1-40. Following washing of the filter in high-salt buffer, bound radioactivity was estimated by autoradiography and densitometry. […] Radioactivity bound to the filter was visualized by autoradiography and quantitated using a densitometer.
b) Peptide no. 11 ([…]) and indicated N- and C-terminal truncated fragments were synthesized using the same technique as described above and analyzed for affinity to ^125I-labelled Aβ-1-40.
d) Each amino acid residue in KLVFF was systematically replaced with A and analyzed for affinity to ^125I-labelled Aβ-1-40. […]

[7] = molecular target: T4, Aβ (Homo sapiens, UniProt P05067); test: Inhibition of amyloid fibril formation (Example 5); assay type: biochemical
T4 construct: It is a 40 to 42 amino acids long proteolytic fragment of the Alzheimer amyloid precursor protein (APP)

[8] = WO 95/08999; cited from earlier work
[9] = molecular target: T5, Aβ (Aβ-16-20) (Homo sapiens, UniProt P05067); test: Binding to Aβ (Example 5)
T5 construct: It is a 40 to 42 amino acids long proteolytic fragment of the Alzheimer amyloid precursor protein (APP)
Source text: as §1

[10] = molecular target: T2, Aβ-1-40; test: Aβ-1-40 polymerization alone or coincubated with peptide, electron microscopy; assay type: biochemical
Description: Aβ-1-40 was incubated at 100 μM in TBS for 48 h at 37° C. in a shaking water bath, either alone or together with 100 μM AcKLVFFNH2. The polymerized material was adsorbed to formvar-coated grids and negatively stained with 2% uranyl acetate in water.

**Q.** With “p3: fragment of Aβ termed p3 and corresponding to Aβ-17-40 or Aβ-17-42 (LVFFAEDVGSNKGAIIGLMVGGVV; P3(40); UniProt P05067 688-711, looked up)” as the molecule, how does the “formation of amyloid fibrils” value [1] read?
**A.** not capable of forming amyloid in vitro or in vivo

**Q.** Which results are given for “Aβ-1-28: a well-studied Aβ fragment that readily forms amyloid fibrils [reference compound]”?
**A.** aggregation (non-aggregated peptide in supernatant) [2]: aggregated; fibril formation (electron microscopy) [2]: formed large fibril bundles; formation of amyloid fibrils [1]: readily forms amyloid fibrils

**Q.** Which “inhibition of amyloid fibril formation” value [3] does the source give for Nc1c(/N=N/c2ccc(-c3ccc(/N=N/c4cc(S(=O)(=O)O)c5ccccc5c4N)cc3)cc2)cc(S(=O)(=O)O)c2ccccc12 [Congo red] here?
**A.** may have such properties

**Q.** Which “identified as ligand of labelled KLVFF” value [4] does the source give for lflrr here?
**A.** identified

**Q.** Which “binding of soluble Aβ-1-40 to immobilized peptide (sensorgram)” value [5] does the source give for Lys-Leu-Val-Phe-Phe [KLVFF] here?
**A.** not saturable

**Q.** And the “binding of radioactive Aβ-1-40 to filter-bound peptide” value [6]?
**A.** high Aβ binding capacity

**Q.** What about the “inhibition of amyloid fibril formation” value [7] of the same molecule?
**A.** inhibit amyloid fibril formation

**Q.** What about the “amnestic or memory enhancing effect” value [8] of the same molecule?
**A.** neither significantly amnestic nor memory enhancing

**Q.** And the “binding to Aβ” value [9]?
**A.** binds stereo specifically

**Q.** What does the source list for “Aβ-1-28^AAVFA: mutated Aβ-1-28 where the KLVFF sequence was substituted with AAVFA”?
**A.** aggregation (non-aggregated peptide in supernatant) [2]: almost completely failed to aggregate; fibril formation (electron microscopy) [2]: only formed a few dispersed fibrils; fibril formation (electron microscopy) ([2]; listed as alanine-substituted Aβ-1-28): does not form fibrils

**Q.** For AcQKLVFFNH2, which “Aβ-1-40 amyloid fibril formation on coincubation with peptide” value ([10]; 100 μM Aβ-1-40 with equimolar peptide, 48 h, 37° C.) is on record?
**A.** this type of fibrils did not form

**Q.** What about the “aggregates formed by the peptide itself” value ([10]; peptide alone, electron microscopy) of the same molecule?
**A.** small rod-like aggregates
